# Where two headings read alike, the source gives them in different places. Positions of bridges follow the written chain, without caps; N, C: chain ends. Residues, ends and D or L forms follow the SMILES beside them. *: point of attachment. DOTA = O=C(O)CN1CCN(CC(=O)O)CCN(CC(=O)*)CCN(CC(=O)O)CC1
# Key:
# [1] = 37°C, determined at 0, 30, 60, 90 min, value holds for 90 min, radioactive TLC
# Method: We used four kinds of solutions to observe the stability of the probes, namely, raw solution, normal saline, fresh mouse serum, and human serum. The specific methods were as follows: the probe and each solution were mixed according to a volume ratio of 1:100, and the original solution was kept as a control. The radiochemical purity of the solution was determined at 0, 30, 60, and 90 min. A curve was drawn to observe the stability of the probe in vitro and to speculate whether the probe would be removed from the standard in vivo.
# Four kinds of solutions were used to observe the stability of the probe, namely, raw solution, normal saline, fresh mouse serum, and human serum. The probe was mixed with each solution at a volume ratio of 1:100, and the original solution was retained as a control. The radiochemical purity of the solution was determined after incubation for 0, 30, 60, and 90 min at 37°C.
# BGC-823 tumors = assay: Biodistribution in tumor-bearing nude mice; format: in vivo, nude BALB/c mice
# Method: All of the experiments were performed according to a protocol approved by the Fourth Military Medical University (FMMU) Animal Care and Use Committee. A total of 0.2 ml of cell suspension (BGC823, 2 × 10^6 cells) was implanted by subcutaneous injection into the right upper limb of athymic female nude BALB/c mice (age, 4–6 weeks; weight, 15–20 g). When the diameter of the tumor reached approximately 8 mm, it could be used for imaging. […] For the biodistribution of the probes, 3.7 × 10^6 Bq of probe was injected intravenously. […] The percentage of injected dose per gram (%ID/g) was calculated. […] The %ID/g was calculated as described previously.
compound,measurement,setting,value
"NCCCC[C@H](NC(=O)[C@H](CCC(=O)O)NC(=O)[C@H](CCCCN)NC(=O)[C@@H]1CSSC[C@H](NC(=O)CN2CCN(CC(=O)O)CCN(CC(=O)O)CCN(CC(=O)O)CC2)C(=O)NCC(=O)N[C@@H](CC(N)=O)C(=O)N[C@@H](CO)C(=O)N[C@@H](CC(N)=O)C(=O)N2CCC[C@H]2C(=O)N[C@@H](CCCCN)C(=O)N[C@@H](CO)C(=O)N1)C(=O)N[C@H]1CSSC[C@@H](C(=O)O)NC(=O)[C@H](CO)NC(=O)[C@H](CCCCN)NC(=O)[C@@H]2CCCN2C(=O)[C@H](CC(N)=O)NC(=O)[C@H](CO)NC(=O)[C@H](CC(N)=O)NC(=O)CNC1=O [^68Ga-DOTA-KEK-(GX1)2, metal not drawn] ({DOTA}-CGNSNPKSCKEKCGNSNPKSC-OH; disulfide 1-9, 13-21)",labeling rate (radiochemical purity) remaining,"[1]; fresh mouse serum, probe:solution 1:100 v/v",above 95%
same,labeling rate (radiochemical purity) remaining,"[1]; human serum, probe:solution 1:100 v/v",above 95%
same,labeling rate (radiochemical purity) remaining,"[1]; normal saline, probe:solution 1:100 v/v",above 95%
same,labeling rate (radiochemical purity) remaining,[1]; raw (original) solution kept as control,above 95%
same,radiation of the tumor over time,"BGC-823 tumors; 3.7 × 10^6 Bq i.v., 30, 60, 90 min, while kidney and liver radioactivity reduced rapidly",decreased relatively slowly
same,%ID/g of the tumor compared with organs,"BGC-823 tumors; 3.7 × 10^6 Bq i.v., 60 min, except for the liver and kidney",higher than that of other normal organs
same,uptake by tumors compared between probes (%ID/g),"BGC-823 tumors; 3.7 × 10^6 Bq i.v., 60 min postinjection",much higher than that of ^68Ga-DOTA-GX1
same,T/NT ratios,"BGC-823 tumors; tumor/nontumor ratios, 30, 60, 90 min after injection",increased over time

# From publication PMC8514943, “^68Ga-Labeled GX1 Dimer: A Novel Probe for PET/Cerenkov Imaging Targeting Gastric Cancer” (Frontiers in Oncology, 2021)
